Laboratory results: patent US20090176264A1 (ORTHO CLINICAL DIAGNOSTICS, published 2009)
Positions count from the first letter of the chain named.

T1: P126(DE): recombinant PlGF wild type (human)
T1 construct: also called unaltered PlGF
T1 chain: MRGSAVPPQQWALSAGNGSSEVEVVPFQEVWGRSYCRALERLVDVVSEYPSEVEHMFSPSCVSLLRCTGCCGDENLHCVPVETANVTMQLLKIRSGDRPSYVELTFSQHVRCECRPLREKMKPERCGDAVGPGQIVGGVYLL

T2: P126(AA): PlGF mutant #1 (human)
T2 chain: T1 chain with D73A, E74A

B1: P126(GAA): PlGF mutant #2 (ligand)
chain: T1 chain with C71G, D73A, E74A
B2: Full length sFlt (soluble fms-like tyrosine kinase 1, sFlt-1), Scios Inc. Lot# 9225-89 (receptor)
chain: SKLKDPELSLKGTQHIMQAGQTLHLQCRGEAAHKWSLPEMVSKESERLSITKSACGRNGKQFCSTLTLNTAQANHTGFYSCKYLAVPTSKKKETESAIYIFISDTGRPFVEMYSEIPEIIHMTEGRELVIPCRVTSPNITVTLKKFPLDTLIPDGKRIIWDSRKGFIISNATYKEIGLLTCEATVNGHLYKTNYLTHRQTNTIIDVQISTPRPVKLLRGHTLVLNCTATTPLNTRVQMTWSYPDEKNKRASVRRRIDQSNSHANIFYSVLTIDKMQNKDKGLYTCRVRSGPSFKSVNTSVHIYDKAFITVKHRKQQVLETVAGKRSYRLSMKVKAFPSPEVVWLKDGLPATEKSARYLTRGYSLIIKDVTEEDAGNYTILLSIKQSNVFKNLTATLIVNVKPQIYEKAVSSFPDPALYPLGSRQILTCTAYGIPQPTIKWFWHPCNHNHSEARCDFCSNNEESFILDADSNMGNRIESITQRMAIIEGKNKMASTLVVADSRISGIYICIASNKVGTVGRNISFYITDVPNGFHVNLEKMPTEGEDLKLSCTVNKFLYRDVTWILLRTVNNRTMHYSISKQKMAITKEHSITLNLTIMNVSLQDSGTYACRARNVYTGEEILQKKEITIRGEHCNKKAVFSRISKFKSTRNDCTTQSNVKH
notes: also called recombinant sFlt

Key:
[1] = target: B2; experiment: ELISA, sFlt coated 0.5 ug/mL, PlGF in solution, detected with Rat-4
Protocol: High-binding microtiter plate was coated with recombinant sFlt at 0.5 ug/mL and blocked with BSA/PBS
Standard ELISA procedure consists of 1st plate incubation with diluted P126(DE) or P126(AA) or P126(GAA) in casein/PBS at various concentration, 2nd plate incubation with monoclonal anti-PlGF Rat-4 solution at 0.1 ug/mL, 3rd plate incubation with HRP conjugated donkey anti-Rat IgG at 1:4K dilution in casein/PBS and 4th plate incubation with 100 uL OPD substrate development for 25 C/30 min. 1st, 2nd and 3rd plate incubation step is at 37 C/15-20 min/shake; 6 times plate washing between each step. 25 uL stop solution after 4th incubation and record OD at 492 nm.

[2] = target: T1, P126(DE): recombinant PlGF wild type; experiment: ELISA, coated PlGF, sFlt at 200 ng/mL, detected with RD-1 + RD-2 anti-sFlt
P126(AA): PlGF mutant #1 [3] = target: T2, P126(AA): PlGF mutant #1; experiment: as above
[4] = target: B1; experiment: as above
[5] = target: T1, P126(DE): recombinant PlGF wild type; experiment: ELISA, coated PlGF, sFlt at 600 ng/mL, detected with RD-1 + RD-2 anti-sFlt
P126(AA): PlGF mutant #1 [6] = target: T2, P126(AA): PlGF mutant #1; experiment: as above
[7] = target: B1; experiment: as above
[8] = target: T1, P126(DE): recombinant PlGF wild type; experiment: ELISA, coated PlGF, sFlt at 1800 ng/mL, detected with RD-1 + RD-2 anti-sFlt
P126(AA): PlGF mutant #1 [9] = target: T2, P126(AA): PlGF mutant #1; experiment: as above
[10] = target: B1; experiment: as above
[11] = target: T1, P126(DE): recombinant PlGF wild type; experiment: ELISA, coated PlGF, sFlt at 66.67 ng/mL, detected with RD-1 + RD-2 anti-sFlt
P126(AA): PlGF mutant #1 [12] = target: T2, P126(AA): PlGF mutant #1; experiment: as above
[13] = target: B1; experiment: as above

binding result [1]	OD at 492 nm [2] [OD]	OD at 492 nm (P126(AA): PlGF mutant #1 [3]) [OD]	OD at 492 nm [4] [OD]	OD at 492 nm [5] [OD]	OD at 492 nm (P126(AA): PlGF mutant #1 [6]) [OD]	OD at 492 nm [7] [OD]	OD at 492 nm [8] [OD]	OD at 492 nm (P126(AA): PlGF mutant #1 [9]) [OD]	OD at 492 nm [10] [OD]	OD at 492 nm [11] [OD]	OD at 492 nm (P126(AA): PlGF mutant #1 [12]) [OD]	OD at 492 nm [13] [OD]	Binder
no binding (tested: 1000 ng/mL)													B1
	0.833	0.115	0.095	1.83	0.182	0.101	> 3	0.21	0.15	0.347	0.143	0.088	B2
